Measurements as given in patent US20190218304A1 (INNATE PHARMA, published 2019).
Where a chain is given by its changes, count along the chain named. Blank lines part the entries; values can stand above or below the binder they belong to.

What was measured:
CD39 mutant 5 [1] = molecular target: T1, CD39 mutant 5 (human, UniProt P49961 1-510); experiment: flow cytometry on Hek-293T cells transfected with CD39 mutant 5 [panel M5]
T1 construct: Expressed on transfected Hek-293T cells; also called M5
T1 chain: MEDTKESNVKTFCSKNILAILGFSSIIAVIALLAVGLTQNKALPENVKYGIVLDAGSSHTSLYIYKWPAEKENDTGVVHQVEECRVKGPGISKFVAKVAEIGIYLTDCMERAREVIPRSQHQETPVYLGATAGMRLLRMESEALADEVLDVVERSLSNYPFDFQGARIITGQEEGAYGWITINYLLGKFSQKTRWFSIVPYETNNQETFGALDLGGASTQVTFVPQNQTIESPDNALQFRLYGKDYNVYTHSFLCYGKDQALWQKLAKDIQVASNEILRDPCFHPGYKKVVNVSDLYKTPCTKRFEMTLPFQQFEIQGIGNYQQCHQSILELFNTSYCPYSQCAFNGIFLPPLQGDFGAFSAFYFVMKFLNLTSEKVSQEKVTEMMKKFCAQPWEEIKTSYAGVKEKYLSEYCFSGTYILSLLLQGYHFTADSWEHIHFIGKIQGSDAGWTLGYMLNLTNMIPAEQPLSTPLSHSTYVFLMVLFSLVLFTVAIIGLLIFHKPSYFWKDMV

CD39 mutant 15 [2] = molecular target: T2, CD39 mutant 15 (human, UniProt P49961 1-510); experiment: flow cytometry on Hek-293T cells transfected with CD39 mutant 15 [panel M15]
T2 construct: Expressed on transfected Hek-293T cells; also called M15
T2 chain: T1 chain with K87A, A96Q, A99N, E100A, D107A, A143E, E147R

CD39 mutant 19 [3] = molecular target: T3, CD39 mutant 19 (human, UniProt P49961 1-510); experiment: flow cytometry on Hek-293T cells transfected with CD39 mutant 19 [panel M19]
T3 construct: Expressed on transfected Hek-293T cells; also called M19
T3 chain: T1 chain with A96Q, A99N, R138A, M139A, E142K, A143E, E147R

[4] = molecular target: T4, human CD39 expressed on cells (human, UniProt P49961 1-510); experiment: flow cytometry on Hek-293T cells transfected with wild-type CD39 (unstained cells, US: 10,3) [panel WT]
T4 construct: On CHO transfectants, HEK-293T transfectants (wild type), Ramos lymphoma cells or monocyte-derived dendritic cells, as named under assay; also called huCD39; CHO-huCD39
T4 sequence: T1 chain with A96Q, A99N, A143E, E147R

CD39 mutant 5 [5] = molecular target: T1, CD39 mutant 5; experiment: flow cytometry on transfected Hek-293T cells
Experimental: (§1) Mutants were transfected in Hek-293T cells, as shown in the table 1, using numbering of SEQ ID NO: 1. Dose-ranges of test antibodies (10-2.5-0.625-0.1563-0.0391-0.0098-0.0024-0.0006 μg/ml) are tested on the 20 generated mutants by flow cytometry.

CD39 mutant 11 = molecular target: T5, CD39 mutant 11 (human, UniProt P49961 1-510); experiment: flow cytometry on transfected Hek-293T cells
T5 construct: Expressed on transfected Hek-293T cells
T5 sequence: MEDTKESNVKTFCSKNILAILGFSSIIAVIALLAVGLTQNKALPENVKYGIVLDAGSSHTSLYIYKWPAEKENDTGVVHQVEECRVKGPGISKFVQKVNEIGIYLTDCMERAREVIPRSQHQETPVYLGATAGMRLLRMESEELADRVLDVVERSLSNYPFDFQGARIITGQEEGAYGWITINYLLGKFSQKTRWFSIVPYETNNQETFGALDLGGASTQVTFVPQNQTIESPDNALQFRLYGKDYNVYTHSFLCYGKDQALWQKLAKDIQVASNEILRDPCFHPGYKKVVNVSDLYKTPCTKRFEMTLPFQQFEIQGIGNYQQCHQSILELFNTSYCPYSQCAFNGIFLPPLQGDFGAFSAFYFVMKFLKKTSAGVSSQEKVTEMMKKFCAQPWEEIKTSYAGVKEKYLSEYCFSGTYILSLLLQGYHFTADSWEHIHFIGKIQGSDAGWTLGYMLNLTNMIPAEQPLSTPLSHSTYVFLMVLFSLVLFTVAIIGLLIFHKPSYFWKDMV
Experimental: as §1

CD39 mutant 15 [6] = molecular target: T2, CD39 mutant 15; experiment: flow cytometry on transfected Hek-293T cells
Experimental: as §1

CD39 mutant 19 [7] = molecular target: T3, CD39 mutant 19; experiment: flow cytometry on transfected Hek-293T cells
Experimental: as §1

binding result (CD39 mutant 5 [1]): binds
binding result (CD39 mutant 15 [2]): no binding
binding result (CD39 mutant 19 [3]): binds
Median : Comp-Alexa Fluor 647-A [4]: 4340
B1: antibody I-396 (antibody, V domains shown)
VH: EVQLQQSGAELVKPGASVKLSCIVSGFNIKDTYINWVKQRPEQGLEWIGRIDPANGNTKYDPKFQGKATMTSDTSSNTAYLHLSSLTSDDSAVYYCARWGYDDEEADYFDSWGQGTTLTVSS
VL: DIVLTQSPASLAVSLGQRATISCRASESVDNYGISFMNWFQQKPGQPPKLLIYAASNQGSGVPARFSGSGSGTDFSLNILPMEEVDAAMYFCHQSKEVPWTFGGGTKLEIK
notes: Purified from hybridoma supernatant with protein A for screening

binding result (CD39 mutant 5 [1]): no binding
binding result (CD39 mutant 19 [3]): no binding
Median : Comp-Alexa Fluor 647-A [4]: 4240
B2: antibody I-395 (antibody, V domains shown)
VH: EVQLQQSGPELVKPGASVRMSCKASGYTFTDYNMHWVKKNHGKGLEWIGYINPNNGGTTYNQKFKGKATLTVNTSSKTAYMELRSLTSEDSAVYYCTRGGTRFASWGQGTLVTVSA
VL: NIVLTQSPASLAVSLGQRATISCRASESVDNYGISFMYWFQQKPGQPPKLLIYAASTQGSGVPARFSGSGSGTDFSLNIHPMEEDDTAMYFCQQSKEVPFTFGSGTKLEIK
notes: as for B1

binding result (CD39 mutant 5 [5]): binds
binding result (CD39 mutant 15 [6]): binds
binding result (CD39 mutant 19 [7]): binds
B3: antibody I-399 (antibody, V domains shown)
VH: PVQLQQPGAEVVMPGASVKLSCKASGYTFTSFWMNWMRQRPGQGLEWIGEIDPSDFYTNSNQRFKGKATLTVDKSSSTAYMQLSSLTSEDSAVYFCARGDFGWYFDVWGTGTSVTVSS
VL: EIVLTQSPTTMTSSPGEKITFTCSASSSINSNYLHWYQQKPGFSPKLLIYRTSNLASGVPTRFSGSGSGTSYSLTIGTMEAEDVATYYCQQGSSLPRTFGGGTKLEIK
notes: as for B1
binding result (CD39 mutant 11): no binding (tested: 10 µg/ml (top of dose range))
